The source of these data is PMC3769348, “Secreted and Transmembrane 1A Is a Novel Co-Stimulatory Ligand” (PLoS ONE, 2013).

This assay has as its target T1, SECTM1B-Fc fusion protein (extracellular domain of murine SECTM1B fused to aglycosyl human IgG1 Fc) (mouse, UniProt Q9JL59 29-160, N-glycosylated).
T1 construct: Secreted and transmembrane 1B (SECTM1B), mouse, extracellular domain; The cDNA was cloned between a CD5 leader and the human IgG1 aglycosyl Fc in pEE12(CMV/T7)CD5Lhγ1; also called mSECTM1B-Fc; Secreted and transmembrane 1B; source: CHO-S cells, purified with protein G agarose (elution with glycine pH 2.0); not shown: Fc (human IgG1, aglycosyl mutant), C-terminal, kept
T1 sequence (looked up): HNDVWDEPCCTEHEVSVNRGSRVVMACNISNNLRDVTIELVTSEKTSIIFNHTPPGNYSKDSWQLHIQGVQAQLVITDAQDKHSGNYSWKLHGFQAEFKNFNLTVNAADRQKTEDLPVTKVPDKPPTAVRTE
Description: SPR; BIAcore 3000, 25°C, CM5 chip; Fc fusion proteins held on separate flow cells by mouse anti-human IgG (SBH2) on amine-coupled rabbit anti-mouse antibody; Fc fusion proteins at 25 µM injected in HEPES-buffered saline pH 7.4 at 5 µl per minute. As to conditions: both partners purified. In general terms: In SPR one partner is held on a chip, and binding of the other changes the refractive index at the surface.

B1: CD7-Fc fusion protein (extracellular domain of murine CD7 fused to aglycosyl human IgG1 Fc) (Fc fusion, mouse, UniProt P50283 24-150, looked up)
chain: QDVHQSPRLTIASEGDSVNITCSTRGHLEGILMKKIWPQAYNVIYFEDRQEPTVDRTFSGRINFSGSQKNLTITISSLQLADTGDYTCEAVRKVSARGLFTTVVVKEKSSQEAYRSQEPLQTSFSFP
modifications: N-glycosylated
notes: CD7, mouse, extracellular domain; The cDNA was cloned between a CD5 leader and the human IgG1 aglycosyl Fc in pEE12(CMV/T7)CD5Lhγ1; also called mCD7-Fc; source: CHO-S cells, purified with protein G agarose (elution with glycine pH 2.0); not shown: Fc (human IgG1, aglycosyl mutant), C-terminal, kept
B1: the binding result was “binds”.
